# Target: the molecule itself
# Experiment: CD spectrometry of 300 uM peptide in phosphate buffer pH 7.5 (self-assembly into nanofiber)
protein,measurement,value
EFIVIFK (Synthetic designed peptide that self-assembles into amyloid-like nanofibers) [Glu-Phe-Ile-Val-Ile-Phe-Lys peptide (EK7aa)],binding result,binds
